The values below come from patent US20150313988.

For series [1], the target named is FLAG-tagged ubiquitin, P0CG47.
Series [2] concerns the target T1, RLRGG-AMC, C-terminal peptide motif of Ub and ISG15 coupled to aminomethylcoumarin.
T1 chain: RLRGG

The target of series [3] is ubiquitin-aminomethylcoumarin, P0CG47.
ubiquitin-aminomethylcoumarin, P0CG47, sequence (P0CG47 whole entry, looked up): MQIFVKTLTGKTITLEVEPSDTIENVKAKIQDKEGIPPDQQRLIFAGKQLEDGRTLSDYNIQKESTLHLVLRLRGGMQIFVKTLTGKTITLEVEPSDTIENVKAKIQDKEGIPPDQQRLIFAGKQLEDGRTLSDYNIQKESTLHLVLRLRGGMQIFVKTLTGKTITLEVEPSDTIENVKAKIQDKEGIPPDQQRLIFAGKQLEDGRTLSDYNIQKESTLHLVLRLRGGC

FLAG-tagged ubiquitin, P0CG47, sequence (P0CG47 whole entry, looked up): as above

B1: EAV nsp2-3 polyprotein with N-terminal HA tag, PLP2 mutant I353R (protein)
chain: GYNPPGDGACGYRCLAFMNGATVVSAGCSSDLWCDDELAYRVFQLSPTFTVTIPGGRVCPNAKYAMICDKQHWRVKRAKGVGLCLDESCFRGRCNCQRMSGPPPAPVSAAVLDHILEAATFGNVRVVTPEGQPRPVPAPRVRPSANSSGDVKDPAPVPPVPKPRTKLATPNPTQAPIPAPRTRLQGASTQEPLASAGVASDSAPKWRVAKTVYSSAERFRTELVQRARSVGDVLVQALPLKTPAVQRYTMTLKMMRSRFSWHCDVWYPLAVIACLLPIWPSLALLLSFAIGLIPSVGNNVVLTALLVSSANYVASMDHQCEGAACLALLEEEHYYRAVRWRPITGALSLVLNLLGQVGYVARSTFDAAYVPCTVFDLCSFAILYLCRNRCWRCFGRCVRVGPATHVLGSTGQRVSKLALIDLCDHFSKPTIDVVGMATGWSGCYTGTAAMERQCASTVDPHSFDQKKAGATVYLTPPVNSGSALQCLNVMWKRPIGSTVLGEQTGAVVTAVKSISFSPPCCVSTTLPTRPGVTVVDHALYNRLTASGVDPALLRVGQGDFLKLNPGFRLIGGWIYGICYFVLVVVSTFTCLPIKCGIGTRDPFCRRVFSVPVTKTQEHCHAGMCASAEGISLDSLGLTQLQSYWIAAVTSGLVILLVCHRLAISALDLLTLASPLVLLVFPWASVGLLLACSLAGAAVKIQLLATLFVNLFFPQATLVTMGYWACVAALAVYSLMGLRVKVNVPMCVTPAHFLLLARSAGQSREQMLRVSAAAPTNSLLGVARDCYVTGTTRLYIPKEGGMVFE
B1: the “density of the alpha-flag lane (remaining ubiquitin conjugates)” value in series [1] was “shows a density of the alpha-flag lane that is about twice as high as that of the T312A lane”.

B2: EAV nsp2-3 polyprotein with N-terminal HA tag, PLP2 mutant T312A (protein)
chain: GYNPPGDGACGYRCLAFMNGATVVSAGCSSDLWCDDELAYRVFQLSPTFTVAIPGGRVCPNAKYAMICDKQHWRVKRAKGVGLCLDESCFRGICNCQRMSGPPPAPVSAAVLDHILEAATFGNVRVVTPEGQPRPVPAPRVRPSANSSGDVKDPAPVPPVPKPRTKLATPNPTQAPIPAPRTRLQGASTQEPLASAGVASDSAPKWRVAKTVYSSAERFRTELVQRARSVGDVLVQALPLKTPAVQRYTMTLKMMRSRFSWHCDVWYPLAVIACLLPIWPSLALLLSFAIGLIPSVGNNVVLTALLVSSANYVASMDHQCEGAACLALLEEEHYYRAVRWRPITGALSLVLNLLGQVGYVARSTFDAAYVPCTVFDLCSFAILYLCRNRCWRCFGRCVRVGPATHVLGSTGQRVSKLALIDLCDHFSKPTIDVVGMATGWSGCYTGTAAMERQCASTVDPHSFDQKKAGATVYLTPPVNSGSALQCLNVMWKRPIGSTVLGEQTGAVVTAVKSISFSPPCCVSTTLPTRPGVTVVDHALYNRLTASGVDPALLRVGQGDFLKLNPGFRLIGGWIYGICYFVLVVVSTFTCLPIKCGIGTRDPFCRRVFSVPVTKTQEHCHAGMCASAEGISLDSLGLTQLQSYWIAAVTSGLVILLVCHRLAISALDLLTLASPLVLLVFPWASVGLLLACSLAGAAVKIQLLATLFVNLFFPQATLVTMGYWACVAALAVYSLMGLRVKVNVPMCVTPAHFLLLARSAGQSREQMLRVSAAAPTNSLLGVARDCYVTGTTRLYIPKEGGMVFE
As for B2, in series [1], the “density of the alpha-flag lane (remaining ubiquitin conjugates)” value is recorded as “a mutant such as T312A already shows a level of DUB-activity that leads to a significantly denser alpha-flag lane, which represents the amount of remaining ubiquitin conjugates, than that of the wild-type virus”.

B3: EAV PLP2 domain (residues 261-392 of EAV pp1a) carrying a C-terminal HIS6 purification tag, wild-type (protein)
chain: GYNPPGDGACGYRCLAFMNGATVVSAGCSSDLWCDDELAYRVFQLSPTFTVTIPGGRVCPNAKYAMICDKQHWRVKRAKGVGLCLDESCFRGICNCQRMSGPPPAPVSAAVLDHILEAATFGNVRVVTPEGQ
For orientation: kcat/KM means the turnover number divided by the Michaelis constant. B3: the kcat/KM came out at 48 ± 8 M⁻¹ s⁻¹ in series [2] and 21000 ± 2000 M⁻¹ s⁻¹ in series [3].

B4: EAV PLP2 domain I353R mutant enzyme (protein)
chain: GYNPPGDGACGYRCLAFMNGATVVSAGCSSDLWCDDELAYRVFQLSPTFTVTIPGGRVCPNAKYAMICDKQHWRVKRAKGVGLCLDESCFRGRCNCQRMSGPPPAPVSAAVLDHILEAATFGNVRVVTPEGQ
As to B4, the kcat/KM in series [2] was 71 ± 8 M⁻¹ s⁻¹. In series [3], the kcat/KM was 1100 ± 100 M⁻¹ s⁻¹ and the “kcat/KM relative to wild type” value was “the kcat/KM value for Ub-AMC of the mutant I353R is 20 times lower than that of the wild-type virus”.
